Patent US10919943B2, “Mutant proteins enabling agrochemical control of plant gene expression” (The Regents of the University of California, priority 2016, dated 2021)

Molecular target: T1, PYR1 (Arabidopsis thaliana, UniProt O49686)
T1 construct: expressed in transfected cells; host or cells: S. cerevisiae strain Y190
T1 sequence (O49686 1-191): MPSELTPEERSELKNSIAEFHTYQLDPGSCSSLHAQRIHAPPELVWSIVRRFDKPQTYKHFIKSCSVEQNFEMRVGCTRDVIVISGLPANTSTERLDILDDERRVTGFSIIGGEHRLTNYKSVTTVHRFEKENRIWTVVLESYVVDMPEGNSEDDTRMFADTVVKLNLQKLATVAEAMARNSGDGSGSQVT
Test: Yeast two hybrid of pACT-HAB1 site saturation mutants with pBD-PYR1 on 10 μM ABA, β-galactosidase staining
Type: cell-based
Set-up: key: x: Mutations in HAB1 that disrupt HAB1 interaction with PYR1
Conditions: S. cerevisiae Y190, 10 μM ABA; dead = lack of detectable staining in comparison to wild type control
In short: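 HAB1 (lacking three N-terminal residues) site-saturation mutants in pACT were co-transformed with pBD-PYR1 into S. cerevisiae Y190 and spotted on SD (-Leu,-Trp) with 10 μM ABA. After 2 days at 30 °C, chloroform-lysed colonies were stained for β-galactosidase; "dead" means no detectable staining versus wild-type pair.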

Molecule	Mutations in HAB1 that disrupt HAB1 interaction with PYR1
W385V: HAB1 mutant (protein, UniProt Q9CAJ0 23-511, looked up, variant W385V) Protein phosphatase 2C 16: SPVEITQLKNVTDAADLLSDSENQSFCNGGTECTMEDVSELEEVGEQDLLKTLSDTRSGSSNVFDEDDVLSVVEDNSAVISEGLLVVDAGSELSLSNTAMEIDNGRVLATAIIVGESSIEQVPTAEVLIAGVNQDTNTSEVVIRLPDENSNHLVKGRSVYELDCIPLWGTVSIQGNRSEMEDAFAVSPHFLKLPIKMLMGDHEGMSPSLTHLTGHFFGVYDGHGGHKVADYCRDRLHFALAEEIERIKDELCKRNTGEGRQVQWDKVFTSCFLTVDGEIEGKIGRAVVGSSDKVLEAVASETVGSTAVVALVCSSHIVVSNCGDSRAVLFRGKEAMPLSVDHKPDREDEYARIENAGGKVIQVQGARVFGVLAMSRSIGDRYLKPYVIPEPEVTFMPRSREDECLILASDGLWDVMNNQEVCEIARRRILMWHKKNGAPPLAERGKGIDPACQAAADYLSMLALQKGSKDNISIIVIDLKAQRKFKTRT	x
W385C: HAB1 mutant (protein, UniProt Q9CAJ0 23-511, looked up, variant W385C) Protein phosphatase 2C 16: SPVEITQLKNVTDAADLLSDSENQSFCNGGTECTMEDVSELEEVGEQDLLKTLSDTRSGSSNVFDEDDVLSVVEDNSAVISEGLLVVDAGSELSLSNTAMEIDNGRVLATAIIVGESSIEQVPTAEVLIAGVNQDTNTSEVVIRLPDENSNHLVKGRSVYELDCIPLWGTVSIQGNRSEMEDAFAVSPHFLKLPIKMLMGDHEGMSPSLTHLTGHFFGVYDGHGGHKVADYCRDRLHFALAEEIERIKDELCKRNTGEGRQVQWDKVFTSCFLTVDGEIEGKIGRAVVGSSDKVLEAVASETVGSTAVVALVCSSHIVVSNCGDSRAVLFRGKEAMPLSVDHKPDREDEYARIENAGGKVIQCQGARVFGVLAMSRSIGDRYLKPYVIPEPEVTFMPRSREDECLILASDGLWDVMNNQEVCEIARRRILMWHKKNGAPPLAERGKGIDPACQAAADYLSMLALQKGSKDNISIIVIDLKAQRKFKTRT	x
W385Y: HAB1 mutant (protein, UniProt Q9CAJ0 23-511, looked up, variant W385Y) Protein phosphatase 2C 16: SPVEITQLKNVTDAADLLSDSENQSFCNGGTECTMEDVSELEEVGEQDLLKTLSDTRSGSSNVFDEDDVLSVVEDNSAVISEGLLVVDAGSELSLSNTAMEIDNGRVLATAIIVGESSIEQVPTAEVLIAGVNQDTNTSEVVIRLPDENSNHLVKGRSVYELDCIPLWGTVSIQGNRSEMEDAFAVSPHFLKLPIKMLMGDHEGMSPSLTHLTGHFFGVYDGHGGHKVADYCRDRLHFALAEEIERIKDELCKRNTGEGRQVQWDKVFTSCFLTVDGEIEGKIGRAVVGSSDKVLEAVASETVGSTAVVALVCSSHIVVSNCGDSRAVLFRGKEAMPLSVDHKPDREDEYARIENAGGKVIQYQGARVFGVLAMSRSIGDRYLKPYVIPEPEVTFMPRSREDECLILASDGLWDVMNNQEVCEIARRRILMWHKKNGAPPLAERGKGIDPACQAAADYLSMLALQKGSKDNISIIVIDLKAQRKFKTRT	x
W385D: HAB1 mutant (protein, UniProt Q9CAJ0 23-511, looked up, variant W385D) Protein phosphatase 2C 16: SPVEITQLKNVTDAADLLSDSENQSFCNGGTECTMEDVSELEEVGEQDLLKTLSDTRSGSSNVFDEDDVLSVVEDNSAVISEGLLVVDAGSELSLSNTAMEIDNGRVLATAIIVGESSIEQVPTAEVLIAGVNQDTNTSEVVIRLPDENSNHLVKGRSVYELDCIPLWGTVSIQGNRSEMEDAFAVSPHFLKLPIKMLMGDHEGMSPSLTHLTGHFFGVYDGHGGHKVADYCRDRLHFALAEEIERIKDELCKRNTGEGRQVQWDKVFTSCFLTVDGEIEGKIGRAVVGSSDKVLEAVASETVGSTAVVALVCSSHIVVSNCGDSRAVLFRGKEAMPLSVDHKPDREDEYARIENAGGKVIQDQGARVFGVLAMSRSIGDRYLKPYVIPEPEVTFMPRSREDECLILASDGLWDVMNNQEVCEIARRRILMWHKKNGAPPLAERGKGIDPACQAAADYLSMLALQKGSKDNISIIVIDLKAQRKFKTRT	x
